From patent US20230192896A1 (BIOVERATIV THERAPEUTICS, published 2023)

Biological target: T1, non-activatable Factor X (FXn) (Homo sapiens (Human), UniProt P00742 41-488, single biotin on the C-terminal BioTag)
T1 construct: also called BIIB-FX-015
Assay: BLI; class meaning: paragraph 285

Row | Binder | binding result
1 | BIIB-12-922 (antibody, V domains shown, IgG) VH: QVQLVQSGAEVKKPGASVKVSCKASGYTFTSYYMHWVRQAPGQGLEWMGIINPSGGSTSYAQKFQGRVTMTRDTSTSTVYMELSSLRSEDTAVYYCARRGRIAGMWGQGTTVTVSS VL: not shown | binds
2 | BIIB-12-927 (antibody, V domains shown, IgG) VH: QVQLVQSGAEVKKPGASVKVSCKASGYTFTSYYMSWVRQAPGQGLEWMGIINPSGGSTSYAQKFQGRVTMTRDTSTSTVYMELSSLRSEDTAVYYCARDSGRKRYYYMDVWGKGTTVTVSS VL: EIVMTQSPATLSVSPGERATLSCRASQSVSSNLAWYQQKPGQAPRLLIYGASTRATGIPARFSGSGSGTEFTLTISSLQSEDFAVYYCQQFNLWPFTFGGGTKVEIK | binds
3 | BIIB-12-914 (antibody, V domains shown, IgG; also called BIB-12-914) VH: QVQLVQSGAEVKKPGASVKVSCKASGYTFTSYYMHWVRQAPGQGLEWMGIINPSGGSTSYAQKFQGRVTMTRDTSTSTVYMELSSLRSEDTAVYYCARAPRYRGTMDVWGQGTTVTVSS VL: not shown | binds
4 | BIIB-12-932 (antibody, V domains shown, IgG) VH: QVQLVESGGGVVQPGRSLRLSCAASGFTFSSYGMHWVRQAPGKGLEWVAVISYDGSNKYYADSVKGRFTISRDNSKNTLYLQMNSLRAEDTAVYYCARLGYRGASAFDIWGQGTMVTVSS VL: not shown | binds
5 | BIIB-12-923 (antibody, V domains shown, IgG) VH: QVQLVQSGAEVKKPGASVKVSCKASGYTFTSYYMHWVRQAPGQGLEWMGIINPSGGSTSYAQKFQGRVTMTRDTSTSTVYMELSSLRSEDTAVYYCARGAGYLQRAFDIWGQGTMVTVSS VL: DIQMTQSPSTLSASVGDRVTITCRASQSISSWLAWYQQKPGKAPKLLIYKASSLESGVPSRFSGSGSGTEFTLTISSLQPDDFATYYCQQFKSLSFTFGGGTKVEIK | binds
6 | BIIB-12-926 (antibody, V domains shown, IgG) VH: QVQLVQSGAEVKKPGASVKVSCKASGYTFTSYYMHWVRQAPGQGLEWMGIINPSGGSTSYAQKFQGRVTMTRDTSTSTVYMELSSLRSEDTAVYYCARDGRMARGASPDYWGQGTLVTVSS VL: EIVMTQSPATLSVSPGERATLSCRASQSVSSNLAWYQQKPGQAPRLLIYGASTRATGIPARFSGSGSGTEFTLTISSLQSEDFAVYYCQQHSFWPPTFGGGTKVEIK | binds
7 | BIIB-12-924 (antibody, V domains shown, IgG) VH: QVQLVESGGGVVQPGRSLRLSCAASGFTFSSYGMHWVRQAPGKGLEWVAVISYDGSNKYYADSVKGRFTISRDNSKNTLYLQMNSLRAEDTAVYYCAKGKSSERGLNPWGQGTLVTVSS VL: DIQMTQSPSSVSASVGDRVTITCRASQGISSWLAWYQQKPGKAPKLLIYAASSLQSGVPSRFSGSGSGTDFTLTISSLQPEDFATYYCQQGNSFPLTFGGGTKVEIK | binds
8 | BIIB-12-921 (antibody, V domains shown, IgG) VH: QVQLVESGGGVVQPGRSLRLSCAASGFTFSSYGMHWVRQAPGKGLEWVAVISYDGSNKYYADSVKGRFTISRDNSKNTLYLQMNSLRAEDTAVYYCAKVGDRGTRAFDPWGQGTLVTVSS VL: DIQMTQSPSSVSASVGDRVTITCRASQGISRWLAWYQQKPGKAPKLLIYAASSLQSGVPSRFSGSGSGTDFTLTISSLQPEDFATYYCQQGNVFPLTFGGGTKVEIK | binds

Now from value to binder:

Row | binding result | Binder
9 | binds | BIIB-12-931 (antibody, V domains shown, IgG) VH: QVQLVQSGAEVKKPGASVKVSCKASGYTFTSYYMSWVRQAPGQGLEWMGIINPSGGSTSYAQKFQGRVTMTRDTSTSTVYMELSSLRSEDTAVYYCARDPVQEYGPYYYYMDVWGKGTTVTVSS VL: EIVMTQSPATLSVSPGERATLSCRASQSVSSNLAWYQQKPGQAPRLLIYGASTRATGIPARFSGSGSGTEFTLTISSLQSEDFAVYYCQQAAYWPWTFGGGTKVEIK
10 | binds | BIIB-12-929 (antibody, V domains shown, IgG) VH: QVQLVQSGAEVKKPGASVKVSCKASGYTFTSYYMHWVRQAPGQGLEWMGIINPSGGSTSYAQKFQGRVTMTRDTSTSTVYMELSSLRSEDTAVYYCARDQGYSRSFDIWGQGTMVTVSS VL: not shown
11 | binds | BIIB-12-920 (antibody, V domains shown, IgG) VH: QVQLVQSGAEVKKPGASVKVSCKASGYTFTSYGISWVRQAPGQGLEWMGWISPYNGNTNYAQKLQGRVTMTTDTSTSTAYMELRSLRSDDTAVYYCARGSGHTTMFWGQGTLVTVSS VL: EIVMTQSPATLSVSPGERATLSCRASQSVSSNLAWYQQKPGQAPRLLIYSASTRATGIPARFSGSGSGTEFTLTISSLQSEDFAVYYCQQANAYPPTFGGGTKVEI
12 | binds | BIIB-12-933 (antibody, V domains shown, IgG) VH: QVQLVESGGGVVQPGRSLRLSCAASGFTFSSYGMHWVRQAPGKGLEWVAVISYDGSNKYYADSVKGRFTISRDNSKNTLYLQMNSLRAEDTAVYYCARLPRFTGTAYWGQGTLVTVSS VL: not shown
13 | binds | BIIB-12-915 (antibody, V domains shown, IgG) VH: QLQLQESGPGLVKPSETLSLTCTVSGGSISSSRYYWGWIRQPPGKGLEWIGSIYYSGSTYYNPSLKSRVTISVDTSKNQFSLKLSSVTAADTAVYYCARVGGGYANPWGQGTLVTVSS VL: not shown
14 | binds | BIIB-12-919 (antibody, V domains shown, IgG) VH: QVQLVQSGAEVKKPGASVKVSCKASGYTFTSYYMHWVRQAPGQGLEWMGVINPSGGSTSYAQKFQGRVTMTRDTSTSTVYMELSSLRSEDTAVYYCARGANIAVGRRYADYWGQGTLVTVSS VL: DIQMTQSPSTLSASVGDRVTITCRASQSISSWLAWYQQKPGKAPKLLIYKASSLESGVPSRFSGSGSGTEFTLTISSLQPDDFATYYCQQVSSYPTFGGGTKVEIK
15 | binds | BIIB-12-930 (antibody, V domains shown, IgG) VH: QVQLVQSGAEVKKPGASVKVSCKASGYTFTSYYMHWVRQAPGQGLEWMGIINPSGGSTSYAQKFQGRVTMTRDTSTSTVYMELSSLRSEDTAVYYCARVRQKATLLFQHWGQGTLVTVSS VL: not shown
16 | binds | BIIB-12-916 (antibody, V domains shown, IgG) VH: QVQLVQSGAEVKKPGASVKVSCKASGYTFTSYYMHWVRQAPGQGLEWMGIINPSGGSTSYAQKFQGRVTMTRDTSTSTVYMELSSLRSEDTAVYYCARGGRQKATRRVDVWGQGTVVTVSS VL: DIQMTQSPSSLSASVGDRVTITCRASQSISSYLNWYQQKPGKAPKLLIYAASSLQSGVPSRFSGSGSGTDFTLTISSLQPEDFATYYCQQLAITPFTFGGGTKVEIK
17 | binds | BIIB-12-918 (antibody, V domains shown, IgG) VH: QVQLVESGGGVVQPGRSLRLSCAASGFTFSSYGMHWVRQAPGKGLEWVAVISYDGSNKYYADSVKGRFTISRDNSKNTLYLQMNSLRAEDTAVYYCAKSLGGRSFDIWGQGTMVTVSS VL: DIQMTQSPSSLSASVGDRVTITCRASQSISRYLNWYQQKPGKAPKLLIYAASSLQSGVPSRFSGSGSGTDFTLTISSLQPEDFATYYCQQIFSLPITFGGGTKVEIK
18 | binds | BIIB-12-1309 (antibody, V domains shown, IgG) VH: QVQLVESGGGVVQPGRSLRLSCAASGFTFSSYGMHWVRQAPGKGLEWVAVISYDGSNKYYADSVKGRFTISRDNSKNTLYLQMNSLRAEDTAVYYCARGRYTSRYFQHWGQGTLVTVSS VL: DIQMTQSPSSVSASVGDRVTITCRASQGISSWLAWYQQKPGKAPKLLIYAASSLQSGVPSRFSGSGSGTDFTLTISSLQPEDFATYYCQQANSLPITFGGGTKVEIK
